Patent publication US20240270803A1 (Daiichi Sankyo, published 2024)

Columns and labels:
Test in all cases: cell-based or functional assay
[1] = molecular target: T1, HTRA1 protease domain HTRA1 (cat) (human, UniProt F1N152 165-380 (bovine entry))
[2] = molecular target: T2, full-length HTRA1 (HTRA1 (full)) (human, UniProt Q92743 23-480)
[3] = molecular target: T1, HTRA1 protease domain HTRA1 (cat); remark: listed apart in the source
[4] = molecular target: T2, full-length HTRA1 (HTRA1 (full)); remark: listed apart in the source

T1 sequence (F1N152 165-380): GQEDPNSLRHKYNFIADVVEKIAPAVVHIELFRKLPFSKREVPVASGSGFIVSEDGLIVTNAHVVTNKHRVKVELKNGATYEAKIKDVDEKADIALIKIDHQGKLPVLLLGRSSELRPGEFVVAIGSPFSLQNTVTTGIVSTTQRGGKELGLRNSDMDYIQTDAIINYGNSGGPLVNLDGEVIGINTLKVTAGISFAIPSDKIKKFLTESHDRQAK
T2 sequence (Q92743 23-480): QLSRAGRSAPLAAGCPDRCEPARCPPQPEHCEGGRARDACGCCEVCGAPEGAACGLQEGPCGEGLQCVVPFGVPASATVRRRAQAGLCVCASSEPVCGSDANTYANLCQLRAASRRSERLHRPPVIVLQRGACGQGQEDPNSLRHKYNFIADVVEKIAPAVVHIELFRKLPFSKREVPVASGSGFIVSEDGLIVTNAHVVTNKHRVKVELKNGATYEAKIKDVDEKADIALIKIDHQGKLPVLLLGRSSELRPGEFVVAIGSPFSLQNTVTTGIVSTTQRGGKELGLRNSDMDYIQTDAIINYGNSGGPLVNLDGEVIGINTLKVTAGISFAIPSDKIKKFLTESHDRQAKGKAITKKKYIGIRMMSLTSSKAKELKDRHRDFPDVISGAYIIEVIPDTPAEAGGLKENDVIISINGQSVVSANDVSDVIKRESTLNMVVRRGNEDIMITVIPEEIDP

B1: peptide derivative H322AT (designed binder)
chain: DPQFGLFSKYRTPNCSQHEGMACYALYEPVCGSDMSTYANECTLCMKIREGGHNIKIIRNGPCGG
Q: With B1 as the binder, how does the “IC50 (nM) for HTRA1 (cat); decomposition rate of substrate peptide H2-Opt” value [1] read?
A: The value was 45 nM.

Q: And the “IC50 (nM) for HTRA1 (full); decomposition rate of substrate peptide H2-Opt” value [2]?
A: Its value is 25 nM.

B2: peptide H322 (designed binder)
chain: DPQFGLFSKYRTPNCSQHEGMACYALYEPVCGSDMSTYVNECALCMKIREGGHNIKIIRNGPCGG
Q: B2 was tested. Which “IC50 (nM) for HTRA1 (cat); decomposition rate of substrate peptide H2-Opt” value [1] did it give?
A: Its value is 50 nM.

Q: What about the “IC50 (nM) for HTRA1 (full); decomposition rate of substrate peptide H2-Opt” value [2] of the same binder?
A: The value was 17 nM.

B3: peptide derivative H308AT (designed binder)
chain: DPQFGLFSKYRTPNCSDHAGMACVALYEPVCGSDMSTYANECTLCMKIREGGHNIKIIRNGPCGG
Q: B3 was tested. Which “IC50 (nM) for HTRA1 (cat); decomposition rate of substrate peptide H2-Opt” value [1] did it give?
A: The value was 49 nM.

Q: What about the “IC50 (nM) for HTRA1 (full); decomposition rate of substrate peptide H2-Opt” value [2] of the same binder?
A: The value was 31 nM.

B4: peptide M7 (designed binder)
chain: DPQFGLFSKYRTPNCSDHAGMACVAFYEPVCGSDMSTYANECTLCMKIREGGHNIKIIRNGPCGG
Q: For B4, which “IC50 (nM) for HTRA1 (cat); decomposition rate of substrate peptide H2-Opt” value [1] is on record?
A: Its value is 43 nM.

Q: What about the “IC50 (nM) for HTRA1 (full); decomposition rate of substrate peptide H2-Opt” value [2] of the same binder?
A: The value was 24 nM.

B5: peptide H223 (designed binder)
chain: DPQFGLFSKYRTPNCTMDMGMACWAFYEPVCGSDMSTYANECTLCMKIREGGHNIKIIRNGPCGG
Q: Which “IC50 (nM) for HTRA1 (cat); decomposition rate of substrate peptide H2-Opt” value [1] does the source give for B5 here?
A: Its value is 41 nM.

Q: And the “IC50 (nM) for HTRA1 (full); decomposition rate of substrate peptide H2-Opt” value [2]?
A: Its value is 66 nM.

B6: peptide H228 (designed binder)
chain: DPQFGLFSKYRTPNCGHYNGWACQAFFEPVCGSDMSTYANECTLCMKIREGGHNIKIIRNGPCGG
Q: Which “IC50 (nM) for HTRA1 (cat); decomposition rate of substrate peptide H2-Opt” value [1] does the source give for B6 here?
A: The value was 71 nM.

Q: What about the “IC50 (nM) for HTRA1 (full); decomposition rate of substrate peptide H2-Opt” value [2] of the same binder?
A: The value was 38 nM.

B7: peptide H321 (designed binder)
chain: DPQFGLFSKYRTPNCSDFDGMACYAFYEPVCGSDMSTYMNECALCMKIREGGHNIKIIRNGPCGG
Q: B7 was tested. Which “IC50 (nM) for HTRA1 (cat); decomposition rate of substrate peptide H2-Opt” value [1] did it give?
A: The value was 48 nM.

Q: And the “IC50 (nM) for HTRA1 (full); decomposition rate of substrate peptide H2-Opt” value [2]?
A: The value was 29 nM.

B8: peptide derivative H321AT_D1G_S16A (designed binder)
chain: GPQFGLFSKYRTPNCADFDGMACYAFYEPVCGSDMSTYANECTLCMKIREGGHNIKIIRNGPCGG
Q: For B8, which “IC50 (nM) for HTRA1 (cat); decomposition rate of substrate peptide H2-Opt (n=3)” value [3] is on record?
A: Its value is 9 nM.

Q: What about the “IC50 (nM) for HTRA1 (full); decomposition rate of substrate peptide H2-Opt (n=3)” value [4] of the same binder?
A: Its value is 12 nM.

B9: peptide H218 (designed binder)
chain: DPQFGLFSKYRTPNCLKSEGMACYAYYEPVCGSDMSTYANECTLCMKIREGGHNIKIIRNGPCGG
Q: Which “IC50 (nM) for HTRA1 (cat); decomposition rate of substrate peptide H2-Opt” value [1] does the source give for B9 here?
A: Its value is 72 nM.

Q: And the “IC50 (nM) for HTRA1 (full); decomposition rate of substrate peptide H2-Opt” value [2]?
A: The value was 55 nM.

B10: peptide derivative H308_D1G_S16A (designed binder)
chain: GPQFGLFSKYRTPNCADHAGMACVALYEPVCGSDMSTYENECVLCMKIREGGHNIKIIRNGPCGG
Q: How did the “IC50 (nM) for HTRA1 (cat); decomposition rate of substrate peptide H2-Opt (n=3)” value [3] turn out when B10 was run?
A: The value was 7.9 nM.

Q: And the “IC50 (nM) for HTRA1 (full); decomposition rate of substrate peptide H2-Opt (n=3)” value [4]?
A: Its value is 9.1 nM.

B11: peptide derivative H322AT_D1G_S16A (designed binder)
chain: GPQFGLFSKYRTPNCAQHEGMACYALYEPVCGSDMSTYANECTLCMKIREGGHNIKIIRNGPCGG
Q: Which results are given for B11?
A: IC50 (nM) for HTRA1 (cat); decomposition rate of substrate peptide H2-Opt (n=3) [3]: 12.9 nM; IC50 (nM) for HTRA1 (full); decomposition rate of substrate peptide H2-Opt (n=3) [4]: 12.2 nM

B12: peptide H308 (designed binder)
chain: DPQFGLFSKYRTPNCSDHAGMACVALYEPVCGSDMSTYENECVLCMKIREGGHNIKIIRNGPCGG
Q: Which results are given for B12?
A: IC50 (nM) for HTRA1 (cat); decomposition rate of substrate peptide H2-Opt [1]: 37 nM; IC50 (nM) for HTRA1 (full); decomposition rate of substrate peptide H2-Opt [2]: 15 nM

B13: peptide derivative H321AT (designed binder)
chain: DPQFGLFSKYRTPNCSDFDGMACYAFYEPVCGSDMSTYANECTLCMKIREGGHNIKIIRNGPCGG
Q: With B13 as the binder, how does the “IC50 (nM) for HTRA1 (cat); decomposition rate of substrate peptide H2-Opt” value [1] read?
A: Its value is 46 nM.

Q: What about the “IC50 (nM) for HTRA1 (full); decomposition rate of substrate peptide H2-Opt” value [2] of the same binder?
A: Its value is 18 nM.
